B1: TR2: Testicular Orphan Nuclear Receptor 2 (NR2C1), cDNA driver (protein, UniProt P13056 1-603, looked up)
Nuclear receptor subfamily 2 …: MATIEEIAHQIIEQQMGEIVTEQQTGQKIQIVTALDHNTQGKQFILTNHDGSTPSKVILARQDSTPGKVFLTTPDAAGVNQLFFTTPDLSAQHLQLLTDNSPDQGPNKVFDLCVVCGDKASGRHYGAVTCEGCKGFFKRSIRKNLVYSCRGSKDCIINKHHRNRCQYCRLQRCIAFGMKQDSVQCERKPIEVSREKSSNCAASTEKIYIRKDLRSPLTATPTFVTDSESTRSTGLLDSGMFMNIHPSGVKTESAVLMTSDKAESCQGDLSTLANVVTSLANLGKTKDLSQNSNEMSMIESLSNDDTSLCEFQEMQTNGDVSRAFDTLAKALNPGESTACQSSVAGMEGSVHLITGDSSINYTEKEGPLLSDSHVAFRLTMPSPMPEYLNVHYIGESASRLLFLSMHWALSIPSFQALGQENSISLVKAYWNELFTLGLAQCWQVMNVATILATFVNCLHNSLQQDKMSTERRKLLMEHIFKLQEFCNSMVKLCIDGYEYAYLKAIVLFSPDHPSLENMEQIEKFQEKAYVEFQDYITKTYPDDTYRLSRLLLRLPALRLMNATITEELFFKGLIGNIRIDSVIPHILKMEPADYNSQIIGHSI
B2: RXRb: Retinoic X Receptor β (NR2B2), cDNA driver (protein, UniProt P28702 1-533, looked up)
Retinoic acid receptor …: MSWAARPPFLPQRHAAGQCGPVGVRKEMHCGVASRWRRRRPWLDPAAAAAAAVAGGEQQTPEPEPGEAGRDGMGDSGRDSRSPDSSSPNPLPQGVPPPSPPGPPLPPSTAPSLGGSGAPPPPPMPPPPLGSPFPVISSSMGSPGLPPPAPPGFSGPVSSPQINSTVSLPGGGSGPPEDVKPPVLGVRGLHCPPPPGGPGAGKRLCAICGDRSSGKHYGVYSCEGCKGFFKRTIRKDLTYSCRDNKDCTVDKRQRNRCQYCRYQKCLATGMKREAVQEERQRGKDKDGDGEGAGGAPEEMPVDRILEAELAVEQKSDQGVEGPGGTGGSGSSPNDPVTNICQAADKQLFTLVEWAKRIPHFSSLPLDDQVILLRAGWNELLIASFSHRSIDVRDGILLATGLHVHRNSAHSAGVGAIFDRVLTELVSKMRDMRMDKTELGCLRAIILFNPDAKGLSNPSEVEVLREKVYASLETYCKQKYPEQQGRFAKLLLRLPALRSIGLKCLEHLFFFKLIGDTPIDTFLMEMLEAPHQLA
B3: RXRg: Retinoic X Receptor γ (NR2B3), cDNA driver (protein, UniProt P48443 1-463, looked up)
Retinoic acid receptor …: MYGNYSHFMKFPAGYGGSPGHTGSTSMSPSAALSTGKPMDSHPSYTDTPVSAPRTLSAVGTPLNALGSPYRVITSAMGPPSGALAAPPGINLVAPPSSQLNVVNSVSSSEDIKPLPGLPGIGNMNYPSTSPGSLVKHICAICGDRSSGKHYGVYSCEGCKGFFKRTIRKDLIYTCRDNKDCLIDKRQRNRCQYCRYQKCLVMGMKREAVQEERQRSRERAESEAECATSGHEDMPVERILEAELAVEPKTESYGDMNMENSTNDPVTNICHAADKQLFTLVEWAKRIPHFSDLTLEDQVILLRAGWNELLIASFSHRSVSVQDGILLATGLHVHRSSAHSAGVGSIFDRVLTELVSKMKDMQMDKSELGCLRAIVLFNPDAKGLSNPSEVETLREKVYATLEAYTKQKYPEQPGRFAKLLLRLPALRSIGLKCLEHLFFFKLIGDTPIDTFLMEMLETPLQIT
B4: HNF4g: Hepatocyte Nuclear Factor γ (NR2A2), cDNA driver (protein, UniProt Q14541 1-408, looked up)
Hepatocyte nuclear factor …: MNTTDNGVNCLCAICGDRATGKHYGASSCDGCKGFFRRSIRKSHVYSCRFSRQCVVDKDKRNQCRYCRLRKCFRAGMKKEAVQNERDRISTRRSTFDGSNIPSINTLAQAEVRSRQISVSSPGSSTDINVKKIASIGDVCESMKQQLLVLVEWAKYIPAFCELPLDDQVALLRAHAGEHLLLGATKRSMMYKDILLLGNNYVIHRNSCEVEISRVANRVLDELVRPFQEIQIDDNEYACLKAIVFFDPDAKGLSDPVKIKNMRFQVQIGLEDYINDRQYDSRGRFGELLLLLPTLQSITWQMIEQIQFVKLFGMVKIDNLLQEMLLGGASNDGSHLHHPMHPHLSQDPLTGQTILLGPMSTLVHADQISTPETPLPSPPQGSGQEQYKIAANQASVISHQHLSKQKQL
B5: RORb: RAR-related Orphan Receptor β (NR1F2), cDNA driver (protein, UniProt Q92753 1-470, looked up)
Nuclear receptor ROR-beta: MCENQLKTKADATAQIEVIPCKICGDKSSGIHYGVITCEGCKGFFRRSQQNNASYSCPRQRNCLIDRTNRNRCQHCRLQKCLALGMSRDAVKFGRMSKKQRDSLYAEVQKHQQRLQEQRQQQSGEAEALARVYSSSISNGLSNLNNETSGTYANGHVIDLPKSEGYYNVDSGQPSPDQSGLDMTGIKQIKQEPIYDLTSVPNLFTYSSFNNGQLAPGITMTEIDRIAQNIIKSHLETCQYTMEELHQLAWQTHTYEEIKAYQSKSREALWQQCAIQITHAIQYVVEFAKRITGFMELCQNDQILLLKSGCLEVVLVRMCRAFNPLNNTVLFEGKYGGMQMFKALGSDDLVNEAFDFAKNLCSLQLTEEEIALFSSAVLISPDRAWLIEPRKVQKLQEKIYFALQHVIQKNHLDDETLAKLIAKIPTITAVCNLHGEKLQVFKQSHPEIVNTLFPPLYKELFNPDCATGCK

Test system: hCAR promoter
Assay: NHR-promoter luciferase screen, hCAR promoter
Assay type: cell-based, human
Details: hCAR promoter-luciferase, CV-1 cells, NHR +/- ligand, control = 1.00
How it was run: (§1)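 CV-1 cells were co-transfected with 50 ng NHR (homodimer or NHR/RXR heterodimer), 100 ng promoter-luciferase construct and 50 ng LacZ. Luciferase was normalized to LacZ and to a no-NHR/no-ligand control.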

Point of comparison: B2, “luciferase activity normalized to lacZ activity and to a control, hCAR” value 0.95. Against it:
- B1 — higher, 2.30
- B3 — lower, 0.93
- B4 — lower, 0.81
- B5 — higher, 1.05

Same assay, conditions: hCAR promoter; HR/ligand component

Point of comparison: B2, “Luc. act., normalized to lacZ” value 30.1. Against it:
- B1 — higher, 72.7
- B3 — lower, 29.3
- B4 — lower, 25.5
- B5 — higher, 33.3

Point of comparison: B1, “Normalized Luc. act., normalized to control” value 2.3. Against it:
- B2 — lower, 1.0
- B3 — lower, 0.9
- B4 — lower, 0.8
- B5 — lower, 1.1

Test system: mPgc1b promoter
Assay: NHR-promoter luciferase screen, mPgc1b promoter
Assay type: cell-based, mouse
Details: PGC1b promoter reporter; co-transfected HR, without or with its ligand
How it was run: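 CV-1 cells co-transfected with NHR homodimer or NHR/RXR heterodimer (pcDNA3.1, C-terminal V5H6 tag), promoter-luciferase construct and LacZ transfection control. Orphan receptors screened without ligand. Luciferase normalized to LacZ and to no-NHR/no-ligand control.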

Point of comparison: B1, “Luc. act., normalized to lacZ” value 9.8. Against it:
- B2 — higher, 11.7
- B3 — lower, 9.0
- B4 — lower, 6.8
- B5 — higher, 10.7

Same assay, conditions: PGC1b promoter reporter; co-transfected HR, without or with its ligand; relative to control

Point of comparison: B1, “Normalized Luc. act., normalized to control” value 0.8. Against it:
- B2 — higher, 1.0
- B3 — the same, 0.8
- B4 — lower, 0.6
- B5 — higher, 0.9

Same assay, conditions: mPgc1b promoter-luciferase, CV-1 cells, NHR +/- ligand, control = 1.00

Point of comparison: B3, “luciferase activity normalized to lacZ activity and to a control, mPgc1b” value 0.76. Against it:
- B1 — higher, 0.83
- B2 — higher, 0.99
- B4 — lower, 0.57
- B5 — higher, 0.90

Test system: mUCP1 promoter
Assay: NHR-promoter luciferase screen, mUCP1 promoter
Assay type: cell-based, mouse
Details: mUCP1 promoter reporter; co-transfected HR, with or without its ligand
How it was run: as §1

Point of comparison: B4, “Luc. act., normalized to lacZ” value 3.5. Against it:
- B1 — higher, 8.1
- B2 — lower, 0.9
- B3 — lower, 2.5
- B5 — higher, 3.8

Same assay, conditions: mUCP1 promoter reporter; co-transfected HR, with or without its ligand; relative to control

Point of comparison: B2, “Normalized Luc. act., normalized to control” value 0.2. Against it:
- B1 — higher, 1.8
- B3 — higher, 0.6
- B4 — higher, 0.8
- B5 — higher, 0.9

Same assay, conditions: mUCP! promoter-luciferase, CV-1 cells, NHR +/- ligand, control = 1.00

Point of comparison: B1, “luciferase activity normalized to lacZ activity and to a control, mUCP!” value 1.82. Against it:
- B2 — lower, 0.21
- B3 — lower, 0.55
- B4 — lower, 0.79
- B5 — lower, 0.86

Test system: hPOMC promoter
Assay: NHR-promoter luciferase screen, hPOMC promoter
Assay type: cell-based, human
Details: hPOMC promoter; HR/ligand component
How it was run: as §1

Point of comparison: B4, “Luc. act., normalized to lacZ” value 5.3. Against it:
- B1 — higher, 15.7
- B3 — lower, 2.5
- B5 — lower, 2.2

Point of comparison: B4, “Normalized Luc. act., normalized to control” value 1.2. Against it:
- B1 — higher, 3.6
- B2 — lower, 0.0
- B3 — lower, 0.6
- B5 — lower, 0.5

Same assay, conditions: transcription factor +/- ligand; control = 1.00

Point of comparison: B2, “hPOMC promoter reporter activity” value 0.00. Against it:
- B1 — higher, 3.65
- B3 — higher, 0.58
- B4 — higher, 1.23
- B5 — higher, 0.52

Test system: mUCP3 promoter
Assay: NHR-promoter luciferase screen, mUCP3 promoter
Assay type: cell-based, mouse
Details: mUCP3 promoter reporter; HR without or with its ligand; relative to control
How it was run: as §1

Point of comparison: B2, “Normalized Luc. act., normalized to control” value 0.8. Against it:
- B1 — higher, 2.0
- B3 — higher, 1.4
- B4 — the same, 0.8
- B5 — higher, 1.3

Same assay, conditions: mUCP3 promoter reporter; hormone receptor (HR) without or with its ligand

Point of comparison: B2, “Luc. act., normalized to lacZ” value 0.6. Against it:
- B1 — higher, 1.4
- B3 — higher, 1.0
- B4 — the same, 0.6
- B5 — higher, 0.9

Same assay, conditions: transcription factor +/- ligand; control = 1.00

Point of comparison: B1, “mUCP3 promoter reporter activity” value 2.01. Against it:
- B2 — lower, 0.83
- B3 — lower, 1.41
- B4 — lower, 0.84
- B5 — lower, 1.33

Test system: MCP-1 promoter
Assay: NHR-promoter luciferase screen, MCP-1 promoter
Assay type: cell-based
Details: MCP-1 promoter reporter; HR without or with its ligand; relative to control
How it was run: as §1

Point of comparison: B3, “Normalized Luc. act., normalized to control” value 2.0. Against it:
- B1 — higher, 2.9
- B2 — lower, 0.0
- B4 — lower, 1.2
- B5 — lower, 1.6

Same assay, conditions: MCP-1 promoter reporter; hormone receptor (HR) without or with its ligand

Point of comparison: B4, “Luc. act., normalized to lacZ” value 128.6. Against it:
- B1 — higher, 311.2
- B3 — higher, 212.4
- B5 — higher, 176.3

Same assay, conditions: transcription factor +/- ligand; control = 1.00

Point of comparison: B1, “mMCP-1 promoter reporter activity” value 2.91. Against it:
- B2 — lower, 0.00
- B3 — lower, 1.98
- B4 — lower, 1.20
- B5 — lower, 1.65

Source: US20110263454A1, “Methods of Identifying Functional Characteristics of Promoters, Transcription Modifying Proteins and Transcription Modulating Agents” (Salk Institute for Biological Studies, priority 2008, published 2011)
